Test results: US20230136723A1

Assays:
[1] = biological target: human CTLA-4 (human) (UniProt P16410); test: flow cytometry, transfected cells
[2] = biological target: human PD-L1 (human) (UniProt Q9NZQ7); test: flow cytometry, transfected cells
[3] = biological target: human PD-L1, full-length, expressed on transfected Expi293F cells (human) (UniProt Q9NZQ7); test: flow cytometry, PD-L1-transfected Expi293 cells
[4] = biological target: human PD-L1, full-length, expressed on transfected Expi293F cells (human) (UniProt Q9NZQ7); test: flow cytometry, PD-L1-transfected cells; MFI over WT CD80 ECD-Fc
[5] = biological target: human CD28 (human) (UniProt P10747); test: flow cytometry on transfected cells
[6] = biological target: human CD28 (human) (UniProt P10747); test: flow cytometry; ratio to WT stack m3

Chain of UniProt P16410 (P16410 36-223): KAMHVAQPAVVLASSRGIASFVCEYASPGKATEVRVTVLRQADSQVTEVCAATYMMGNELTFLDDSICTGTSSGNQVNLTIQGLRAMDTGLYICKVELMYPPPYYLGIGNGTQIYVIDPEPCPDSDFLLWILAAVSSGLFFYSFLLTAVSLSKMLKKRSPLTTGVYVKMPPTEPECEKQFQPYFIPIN

variant CD80 ECD-Fc H18L/R29D/Y31L/Q33H/K36G/M38I/T41A/M43R/M47T/E81V/L85R/K89N/A91T/F92P/K93V/R94L/L97R/T130A/N149S (Fc fusion)
MFI [1]: 2180
MFI [2]: 100000

variant CD80 ECD-Fc fusion A91G/S103P
MFI [3]: 9 MFI

variant CD80 ECD-Fc fusion V20L/L70Q/A91S/I118V/T120S/T130A
MFI parental ratio [4]: 0.13
MFI [3]: 9 MFI

B1: Domain 1: CD80 I67T/L70Q/A91G/T120S / Domain 2: CD80 E88D/K89R/D90K/A91G/F92Y/K93R / Fc (Fc fusion)
chain: VIHVTKEVKEVATLSCGHNVSVEELAQTRIYWQKEKKMVLTMMSGDMNIWPEYKNRTIFDITNNLSTVIQALRPSDEGTYECVVLKYEKDGFKREHLAEVTLSVKADFPTPSISDFEIPGGGGSGGGGSGGGGSVIHVTKEVKEVATLSCGHNVSVEELAQTRIYWQKEKKMVLTMMSGDMNIWPEYKNRTIFDITNNLSIVILALRPSDEGTYECVVLKYDRKGYRREHLAEVTLSVKADFPTPSISDFEIPGGGGSGGGGSAAAEPKSSDKTHTCPPCPAPELLGGPSVFLFPPKPKDTLMISRTPEVTCVVVDVSHEDPEVKFNWYVDGVEVHNAKTKPCEEQYGSTYRCVSVLTVLHQDWLNGKEYKCKVSNKALPAPIEKTISKAKGQPREPQVYTLPPSREEMTKNQVSLTCLVKGFYPSDIAVEWESNGQPENNYKTTPPVLDSDGSFFLYSKLTVDKSRWQQGNVFSCSVMHEALHNHYTQKSLSLSPGK
MFI [5]: 938 MFI
WT parental MFI ratio [6]: 0.57
